Residue numbers refer to the chain shown, from its start. One block for each binder: values may come before it.
Key:
[1] = target: T1, human KLRB1 expressed on CHO-K1 cells (CHO-hum-KLRB1) (human, UniProt Q12918 1-225); test: cell-based or functional assay
T1 sequence: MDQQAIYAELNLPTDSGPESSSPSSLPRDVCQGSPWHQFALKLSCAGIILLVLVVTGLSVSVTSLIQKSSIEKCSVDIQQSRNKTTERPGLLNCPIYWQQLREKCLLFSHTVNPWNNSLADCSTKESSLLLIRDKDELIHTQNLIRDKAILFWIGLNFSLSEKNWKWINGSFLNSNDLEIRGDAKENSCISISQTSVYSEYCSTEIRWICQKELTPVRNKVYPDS

[2] = target: T2, human KLRB1 protein extracellular domain (ECD) (human, UniProt Q12918 67-225); test: SPR, human KLRB1 ECD; format not stated
T2 construct: range 67-225; The ELISA and SPR text says only 'human KLRB1 ECD'; also called human KLRB1 ECD; CD161
T2 sequence (looked up): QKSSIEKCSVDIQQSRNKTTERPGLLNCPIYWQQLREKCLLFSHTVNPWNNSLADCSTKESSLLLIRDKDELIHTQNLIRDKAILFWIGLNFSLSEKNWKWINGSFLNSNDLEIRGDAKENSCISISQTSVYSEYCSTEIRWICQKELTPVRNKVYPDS
Method: The chimeric antibody 10A3D6-hIgGlk (a mouse/human chimeric antibody with 10A3D6 variable regions and human IgG1-kappa constant regions), chimeric mutated variants (10A3D6C109S, 10A3D6C109F, and 10A3D6C109V), and humanized variants of 10A3D6 created by CDR grafting (Almagro et al. 2008) were assayed for binding against human KLRB1 extracellular domain (ECD) via surface plasma resonance (SPR).

B1: 10A3D6hum2.2-afuc (afucosylated 10A3D6hum2.2) (antibody, human IgG1, kappa, V domains shown)
VH: QVQLVQSGAEVKKPGASVKVSCKASGYSFTGYTMNWVRQAPGQNLEWIGLINPNTGGTYYNQKFKDRVTLTVDTSISTAYMELSRLRSDDTAVYYCARLGDNYRGYFDSWGQGTTVTVSS
VL: DIQLTQSPSFLSASVGDRVTITCKASQDVGTAVVWYQQKPGKAPKLLIDWASIRHTGVPSRFSGSGSGTEFTLTISSLQPEDFADYFCQQYSTYLYTFGGGTKLEIKR
modifications: Fc N-glycan afucosylated (produced in FUT8 knockout cells). The amino-acid letters are unchanged from 10A3D6hum2.2.
- ADCC target cell killing EC50 (flow cytometry, human NK cells) [1]: 0.01 nM

- Kd [2]: 0.147 nM
- koff [2]: 0.000183 s⁻¹
- kon [2]: 1.24e+06 M⁻¹ s⁻¹
B2: 10A3D6hum1.2 (antibody, V domains shown)
VH: B1 VH with N44G, I48M, L70M, V72R
VL: B1 VL
modifications: Fluorescently labelled in the competition assay; dye and attachment site not stated.
notes: Humanized antibody; also called 103AD6hum1.2; copies: 2 + 2

- Kd [2]: 0.11 nM
- koff [2]: 9.49e-05 s⁻¹
- kon [2]: 861000 M⁻¹ s⁻¹
B3: 10A3D6C109Chum2.5 (antibody, V domains shown)
VH: B1 VH with S109C
VL: EIVMTQSPATLSVSPGERATLSCKASQDVGTAVVWYQQKPGQAPRLLIDWASIRHTGIPARFSGSGSGTEFTLTISSLQSEDFAVYYCQQYSTYLYTFGGGTKVEIK
notes: Humanized variant of 10A3D6 made by CDR grafting

- Kd [2]: 0.111 nM
- koff [2]: 0.000178 s⁻¹
- kon [2]: 1.6e+06 M⁻¹ s⁻¹
B4: 10A3D6hum1.5 (antibody, V domains shown)
VH: B1 VH with N44G, I48M, L70M, V72R
VL: B3 VL
notes: Humanized antibody

- Kd [2]: 0.103 nM
- koff [2]: 9.88e-05 s⁻¹
- kon [2]: 963000 M⁻¹ s⁻¹
B5: 10A3D6C109Chum4.4 (antibody, V domains shown)
VH: B1 VH with P41H, V68A, S109C
VL: DIQLTQSPSFLSASVGDRVTITCKASQDVGTAVVWYQQTPGKAPKLLIDWASIRHTGVPDRFSGSGSGTEFTLTISSLQPEDFADYFCQQYSTYLYTFGGGTKLEIK
notes: as for B3

- Kd [2]: 0.127 nM
- koff [2]: 0.000107 s⁻¹
- kon [2]: 843000 M⁻¹ s⁻¹
B6: 10A3D6C109Chum4.5 (antibody, V domains shown)
VH: B1 VH with P41H, V68A, S109C
VL: B3 VL
notes: as for B3

- Kd [2]: 0.17 nM
- koff [2]: 0.000139 s⁻¹
- kon [2]: 816000 M⁻¹ s⁻¹
B7: 10A3D6C109Chum5.5 (antibody, V domains shown)
VH: B1 VH with I48M, A92V, S109C, T115L
VL: B3 VL
notes: as for B3

- Kd [2]: 0.144 nM
- koff [2]: 0.000114 s⁻¹
- kon [2]: 792000 M⁻¹ s⁻¹
B8: 10A3D6C109Chum3.5 (antibody, V domains shown)
VH: B1 VH with P41H, S109C
VL: B3 VL
notes: as for B3

- Kd [2]: 0.127 nM
- koff [2]: 0.000109 s⁻¹
- kon [2]: 851000 M⁻¹ s⁻¹
B9: 10A3D6C109Chum4.3 (antibody, V domains shown)
VH: B1 VH with P41H, V68A, S109C
VL: B5 VL with D60S
notes: as for B3

- Kd [2]: 0.173 nM
- koff [2]: 0.000138 s⁻¹
- kon [2]: 800000 M⁻¹ s⁻¹
B10: 10A3D6C109Chum5.2 (antibody, V domains shown)
VH: B1 VH with I48M, A92V, S109C, T115L
VL: B5 VL with T39K, D60S
notes: as for B3

- Kd [2]: 0.155 nM
- koff [2]: 0.000134 s⁻¹
- kon [2]: 868000 M⁻¹ s⁻¹
B11: 10A3D6C109Chum5.3 (antibody, V domains shown)
VH: B1 VH with I48M, A92V, S109C, T115L
VL: B5 VL with D60S
notes: as for B3

- Kd [2]: 0.143 nM
- koff [2]: 0.000133 s⁻¹
- kon [2]: 930000 M⁻¹ s⁻¹
B12: 10A3D6C109Chum5.4 (antibody, V domains shown)
VH: B1 VH with I48M, A92V, S109C, T115L
VL: B5 VL
notes: as for B3

- Kd [2]: 10.2 nM
- koff [2]: 0.0196 s⁻¹
- kon [2]: 1.92e+06 M⁻¹ s⁻¹
B13: 10A3D6C109Chum5.1 (antibody, V domains shown)
VH: B1 VH with I48M, A92V, S109C, T115L
VL: B5 VL with T39K, D49Y, D60S, D85T, F87Y
notes: as for B3

- Kd [2]: 0.131 nM
- koff [2]: 0.000139 s⁻¹
- kon [2]: 1.07e+06 M⁻¹ s⁻¹
B14: 10A3D6hum2.2 (antibody, human IgG1, kappa, V domains shown)
VH: B1 VH
VL: B1 VL
notes: copies: 2 + 2

- Kd [2]: 0.0881 nM
- koff [2]: 9e-05 s⁻¹
- kon [2]: 1.02e+06 M⁻¹ s⁻¹
B15: 10A3D6C109Chum1.5 (antibody, V domains shown)
VH: B1 VH with N44G, I48M, L70M, V72R, S109C
VL: B3 VL
notes: as for B3

- Kd [2]: 0.121 nM
- koff [2]: 0.000107 s⁻¹
- kon [2]: 880000 M⁻¹ s⁻¹
B16: 10A3D6C109Chum4.2 (antibody, V domains shown)
VH: B1 VH with P41H, V68A, S109C
VL: B5 VL with T39K, D60S
notes: as for B3

- Kd [2]: 0.172 nM
- koff [2]: 0.000191 s⁻¹
- kon [2]: 1.11e+06 M⁻¹ s⁻¹
B17: 10A3D6-hIgG1k (mouse/human chimeric antibody with 10A3D6 variable regions and human IgG1-kappa constant regions) (antibody)
heavy: not shown
light: DIVMTQSHKFMSTSVGDRVNITCKASQDVGTAVVWYQQTPGQSPKVLIDWASIRHTGVPDRFTGSGSGTDFTLTISSVQSEDLADYFCQQYSTYLYTFGGGTKLEIKRTVAAPSVFIFPPSDEQLKSGTASVVCLLNNFYPREAKVQWKVDNALQSGNSQESVTEQDSKDSTYSLSSTLTLSKADYEKHKVYACEVTHQGLSSPVTKSFNRGEC
notes: also called 10A3D6-chimeric; 10A3D6-hIgGlk; copies: 2 + 2

From US20250270328A1 (BRIGHAM AND WOMEN S HOSPITAL, published 2025)
